The numbers were not newly measured in patent publication US8759613B1, “Method of producing a lunasin polypeptide in plants” (University of Louisville Research Foundation, Inc., priority 2009, dated 2014), which cites them from elsewhere.

For the data set the following is noted: oral administration; digestion.

Bounds are passed on as bounds.

“lunasin: polypeptide of 43-44 amino acids from soybean with a C-terminal end of nine consecutive aspartic acid residues (MSKWQHQQDSCRKQLQGVNLTPCEKHIMEKIQGRGDDDDDDDDD; Glycine max)”: the orally-administered lunasin degraded is listed as at most 95%.
